Assay [1] is described as follows: LPS binding assay (coated wells). More on the design: species or system E. coli. As to conditions: FIG. 4B. On the procedure: K. pneumoniae (3×10^5 CFU/well), E. coli O111:B4 smooth-type LPS (5 μg/well), or bovine serum albumin (BSA, 5 μg/well) in 100 μL of bicarbonate buffer (pH 9.6) were coated onto wells of high-binding microtiter plate (Corning Costar, Cambridge, Mass.). Nonspecific binding was blocked with binding buffer (20 mM Tris-HCl, pH 7.4, 0.15 M NaCl, 5 mM CaCl2) containing 50 mg/mL BSA. Various concentrations of rTMD proteins without or with CD14 (10 μg/mL; R&D Systems) in binding buffer containing 1 mg/mL BSA were added to wells and incubated for 2 hours. In some experiments, 0.2 M mannose, 5 mM EDTA, or Le^y were included in the binding buffer to compete with LPS and rTMD1 binding. Antibody against the c-Myc epitope of the rTMD proteins was added to wells and incubated for 2 hours, and peroxidase-labeled secondary antibody followed. Binding of rTMD proteins was detected by measuring absorbance at 450 nm.

Assay [2] is described as follows: Lethal sepsis model (LPS 40 mg/kg i.p.), survival. The class given is in vivo, Male FVB mice. As to conditions: four i.v. doses of 2 mg/kg. On the procedure:
Male FVB mice (8-10 weeks old) were used to model sepsis in vivo. The Institutional Animal Care and Use Committee of the National Cheng Kung University approved procedures. In the chronic endotoxemia model, various concentrations of rTMD1 or rTMD proteins in equi-molar amounts were administrated by tail intravenous (i.v.) injection and LPS (20 mg/kg) or K. pneumoniae (5×10^2 CFU/mouse, BCRC) was administrated by intraperitoneal (i.p.) injection. After 6 or 12 hours, mice were sacrificed by pentobarbital anesthesia (50 mg/kg; i.p.). […] The half-life of rTMD1 in the circulation was determined by i.v. injection of rTMD1 (10 mg/kg, equals 436.64 nmole/kg) and serum samples were collected at various time intervals. The levels of rTMD1 in the collected sera were determined by a sandwich ELISA which employed anti-c-Myc monoclonal antibody and TM-H300 as capture and detection antibodies (both from Santa Cruz Biotechnology), respectively. […] Mortality was monitored every 6-12 hours until all mice in either experimental group died. […] Serum samples were collected at various time intervals and the amount of LPS was determined by Limulus amebocyte lysate test (Associates of Cape Cod, E. Falmouth, Mass.). […] Outgrowth of K. pneumoniae was quantified by plating serial dilutions of blood samples on blood agar plates and enumerating colonies after overnight incubation at 37° C.

B1: rTMD1: recombinant human thrombomodulin N-terminal lectin-like domain (residues Ala1-Ala155) with 6×His tag and c-Myc epitope, Pichia pastoris expressed (protein)
chain: EFAPAEPQPGGSQCVEHDCFALYPGPATFLNASQICDGLRGHLMTVRSSVAADVISLLLNGDGGVGRRRLWIGLQLPPGCGDPKRLGPLRGFQWVTGDNNTSYSRWARLDLNGAPLCGPLCVAVSAAEATVPSEPIWEEQQCEVKADGFLCEFHFPAYLEDDDDKIEQKLISEEDLNSAVDHHHHHH
modifications: left off: small tags and cut ends
With B1, in assay [1], the “binding to LPS” value is “specifically bound”. Besides, the Kd in assay [1] (estimated from the 50% saturation, read-out: apparent Kd of the binding of LPS with rTMD1) was around 1600 nM. Moreover, the survival in assay [2] (1 day after LPS challenge) was 100%; in assay [2] (4 days after LPS challenge) it was 60%.

Values taken from patent US20120165244A1, “METHODS FOR BINDING LEWIS Y ANTIGEN” (priority 2008, published 2012).
